Reference: US20180343839A1 (BROAD INSTITUTE, published 2018)

Target: RAB28 (human, UniProt P51157 2-218)
Test: CRBN interaction study (HA-CRBN immunoprecipitation, SILAC MS); assay not given

B1: HA-CRBN (hemagglutinin (HA)-tagged human CRBN) (other)
chain: MAGEGDQQDAAHNMGNHLPLLPESEEEDEMEVEDQDSKEAKKPNIINFDTSLPTSHTYLGADMEEFHGRTLHDDDSCQVIPVLPQVMMILIPGQTLPLQLFHPQEVSMVRNLIQKDRTFAVLAYSNVQEREAQFGTTAEIYAYREEQDFGIEIVKVKAIGRQRFKVLELRTQSDGIQQAKVQILPECVLPSTMSAVQLESLNKCQIFPSKPVSREDQCSYKWWQKYQKRKFHCANLTSWPRWLYSLYDAETLMDRIKKQLREWDENLKDDSLPSNPIDFSYRVAACLPIDDVLRIQLLKIGSAIQRLRCELDIMNKCTSLCCKQCQETEITTKNEIFSLSLCGPMAAYVNPHGYVHETLTVYKACNLNLIGRPSTEHSWFPGYAWTVAQCKICASHIGWKFTATKKDMSPQKFWGLTRSALLPTIPDTEDEISPDKVILCL
notes: the clone used (Broad ORF007943.1_s300c1); its numbering fits V387, Y383 and W385 as printed; also called HA-tagged CRBN; HA-CBRN; not shown: HA tag
Question: Does B1 bind?
Answer: no binding
